Target: T1, glutamyl-tRNA synthetase GluRS, C-terminally fused to GFP (S. cerevisiae, UniProt P46655 1-708)
T1 sequence: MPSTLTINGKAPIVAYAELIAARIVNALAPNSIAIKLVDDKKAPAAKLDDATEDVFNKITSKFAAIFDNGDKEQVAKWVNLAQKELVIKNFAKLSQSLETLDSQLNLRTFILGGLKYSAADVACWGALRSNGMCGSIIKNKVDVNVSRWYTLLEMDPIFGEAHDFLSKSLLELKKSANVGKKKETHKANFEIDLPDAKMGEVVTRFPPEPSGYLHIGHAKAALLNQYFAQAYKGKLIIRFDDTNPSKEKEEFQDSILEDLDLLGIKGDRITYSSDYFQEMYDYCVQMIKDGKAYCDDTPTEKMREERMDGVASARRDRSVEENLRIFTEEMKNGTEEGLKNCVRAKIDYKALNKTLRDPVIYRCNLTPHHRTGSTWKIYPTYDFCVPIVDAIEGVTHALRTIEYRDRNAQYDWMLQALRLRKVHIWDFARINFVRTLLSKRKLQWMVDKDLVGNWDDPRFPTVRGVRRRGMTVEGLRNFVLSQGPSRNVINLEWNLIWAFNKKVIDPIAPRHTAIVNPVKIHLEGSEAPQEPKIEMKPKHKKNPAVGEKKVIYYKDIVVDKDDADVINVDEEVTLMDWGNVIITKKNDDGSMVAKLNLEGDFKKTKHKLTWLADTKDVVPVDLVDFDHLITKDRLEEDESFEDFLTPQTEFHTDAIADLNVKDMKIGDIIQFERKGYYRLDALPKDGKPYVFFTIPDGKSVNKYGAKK
Assay: selective ribosome profiling

B1: nascent MetRS (ribosome-nascent chain complexes) (natural protein)
chain: MSFLISFDKSKKHPAHLQLANNLKIALALEYASKNLKPEVDNDNAAMELRNTKEPFLLFDANAILRYVMDDFEGQTSDKYQFALASLQNLLYHKELPQQHVEVLTNKAIENYLVELKEPLTTTDLILFANVYALNSSLVHSKFPELPSKVHNAVALAKKHVPRDSSSFKNIGAVKIQADLTVKPKDSEILPKPNERNILITSALPYVNNVPHLGNIIGSVLSADIFARYCKGRNYNALFICGTDEYGTATETKALEEGVTPRQLCDKYHKIHSDVYKWFQIGFDYFGRTTTDKQTEIAQHIFTKLNSNGYLEEQSMKQLYCPVHNSYLADRYVEGECPKCHYDDARGDQCDKCGALLDPFELINPRCKLDDASPEPKYSDHIFLSLDKLESQISEWVEKASEEGNWSKNSKTITQSWLKDGLKPRCITRDLVWGTPVPLEKYKDKVLYVWFDATIGYVSITSNYTKEWKQWWNNPEHVSLYQFMGKDNVPFHTVVFPGSQLGTEENWTMLHHLNTTEYLQYENGKFSKSRGVGVFGNNAQDSGISPSVWRYYLASVRPESSDSHFSWDDFVARNNSELLANLGNFVNRLIKFVNAKYNGVVPKFDPKKVSNYDGLVKDINEILSNYVKEMELGHERRGLEIAMSLSARGNQFLQENKLDNTLFSQSPEKSDAVVAVGLNIIYAVSSIITPYMPEIGEKINKMLNAPALKIDDRFHLAILEGHNINKAEYLFQRIDEKKIDEWRAKYGGQQV
fold enrichment in footprints: ≥ 30 fold

Source: paper PMC6372068 (Nature, 2018)
